The values below come from JP2007300927A (dated 2007).

Experiment [1] deals with T1, 可溶型GPC3コアタンパク質 (human, UniProt P51654 25-563).
T1 construct: also called 可溶型GPC3コア蛋白質; soluble GPC3 core protein; not shown: C-terminal His tag
Briefly: ELISA on GPC3 (Fig. 15). Background: In an ELISA, binding on a coated surface is turned into a signal by an enzyme label.

For experiment [2], the target named is T1, 可溶型GPC3コアタンパク質. Briefly: ELISA on immobilised soluble GPC3 core protein, COS7 supernatant.

T1 sequence (P51654 25-563 S495A/S509A): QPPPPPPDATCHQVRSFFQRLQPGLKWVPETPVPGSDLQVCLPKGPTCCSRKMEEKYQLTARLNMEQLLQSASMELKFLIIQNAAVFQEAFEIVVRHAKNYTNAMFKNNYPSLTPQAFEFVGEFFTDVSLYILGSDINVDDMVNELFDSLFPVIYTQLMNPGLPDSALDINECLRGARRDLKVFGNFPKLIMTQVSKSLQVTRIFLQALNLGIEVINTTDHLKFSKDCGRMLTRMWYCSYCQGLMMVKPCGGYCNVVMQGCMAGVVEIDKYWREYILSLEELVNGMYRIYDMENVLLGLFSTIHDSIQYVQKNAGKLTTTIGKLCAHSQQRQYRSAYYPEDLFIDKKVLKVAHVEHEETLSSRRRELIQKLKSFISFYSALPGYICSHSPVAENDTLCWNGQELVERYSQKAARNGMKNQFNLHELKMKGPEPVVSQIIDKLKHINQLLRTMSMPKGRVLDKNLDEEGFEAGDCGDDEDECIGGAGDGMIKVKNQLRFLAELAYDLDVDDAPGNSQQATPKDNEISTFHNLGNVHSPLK

B1: ヒト化GC33 H鎖ver.k / L鎖ver.a (antibody, human IgG1, V domains shown)
VH: QVQLVQSGAEVKKPGASVKVSCKASGYTFTDYEMHWVRQAPGQGLEWMGALDPKTGDTAYSQKFKGRVTLTADKSTSTAYMELSSLTSEDTAVYYCTRFYSYTYWGQGTLVTVSS
VL: DVVMTQSPLSLPVTPGEPASISCRSSQSLVHSNGNTYLHWYLQKPGQSPQLLIYKVSNRFSGVPDRFSGSGSGTDFTLKISRVEAEDVGVYYCSQNTHVPPTFGQGTKLEIK
notes: Human IgG1 / κ constant regions; also called GC33 VH ver.k
Consider B1, for which the binding result in experiment [1] was “binds”.

B2: 改変抗体G34F (antibody, human IgG1, V domains shown)
VH: QVQLVQSGAEVKKPGASVKVSCKASGYTFTDYEMHWVRQAPGQGLEWMGALDPKTGDTAYSQKFKGRVTLTADKSTSTAYMELSSLTSEDTAVYYCTRFYSYTYWGQGTLVTVSS
VL: DVVMTQSPLSLPVTPGEPASISCRSSQSLVHSNFNTYLHWYLQKPGQSPQLLIYKVSNRFSGVPDRFSGSGSGTDFTLKISRVEAEDVGVYYCSQNTHVPPTFGQGTKLEIK
notes: As G34A: H chain ver.k by 'the method above'; human IgG1/κ; COS7 supernatant
On to B2, for which the binding result in experiment [2] is given as “binds”.

B3: 改変抗体G34H (antibody, human IgG1, V domains shown)
VH: QVQLVQSGAEVKKPGASVKVSCKASGYTFTDYEMHWVRQAPGQGLEWMGALDPKTGDTAYSQKFKGRVTLTADKSTSTAYMELSSLTSEDTAVYYCTRFYSYTYWGQGTLVTVSS
VL: DVVMTQSPLSLPVTPGEPASISCRSSQSLVHSNHNTYLHWYLQKPGQSPQLLIYKVSNRFSGVPDRFSGSGSGTDFTLKISRVEAEDVGVYYCSQNTHVPPTFGQGTKLEIK
notes: as for B2
Consider B3, for which, in experiment [2], the binding result is “binds”.

B4: 改変抗体G34N (antibody, human IgG1, V domains shown)
VH: QVQLVQSGAEVKKPGASVKVSCKASGYTFTDYEMHWVRQAPGQGLEWMGALDPKTGDTAYSQKFKGRVTLTADKSTSTAYMELSSLTSEDTAVYYCTRFYSYTYWGQGTLVTVSS
VL: DVVMTQSPLSLPVTPGEPASISCRSSQSLVHSNNNTYLHWYLQKPGQSPQLLIYKVSNRFSGVPDRFSGSGSGTDFTLKISRVEAEDVGVYYCSQNTHVPPTFGQGTKLEIK
notes: as for B2
With B4, in experiment [2], the binding result is on record as “binds”.

B5: Asn33をAspに置換した改変抗体(N33D) (antibody, human IgG1, V domains shown)
VH: QVQLVQSGAEVKKPGASVKVSCKASGYTFTDYEMHWVRQAPGQGLEWMGALDPKTGDTAYSQKFKGRVTLTADKSTSTAYMELSSLTSEDTAVYYCTRFYSYTYWGQGTLVTVSS
VL: DVVMTQSPLSLPVTPGEPASISCRSSQSLVHSDGNTYLHWYLQKPGQSPQLLIYKVSNRFSGVPDRFSGSGSGTDFTLKISRVEAEDVGVYYCSQNTHVPPTFGQGTKLEIK
notes: Humanised GC33 H chain ver.k (HEFgγ1, human IgG1) with L chain ver.a N33D (HEFgκ, human κ), expressed transiently in COS7; culture supernatant used
As to B5, the binding result in experiment [2] is reported as “no binding”.

B6: 改変抗体G34I (antibody, human IgG1, V domains shown)
VH: QVQLVQSGAEVKKPGASVKVSCKASGYTFTDYEMHWVRQAPGQGLEWMGALDPKTGDTAYSQKFKGRVTLTADKSTSTAYMELSSLTSEDTAVYYCTRFYSYTYWGQGTLVTVSS
VL: DVVMTQSPLSLPVTPGEPASISCRSSQSLVHSNINTYLHWYLQKPGQSPQLLIYKVSNRFSGVPDRFSGSGSGTDFTLKISRVEAEDVGVYYCSQNTHVPPTFGQGTKLEIK
notes: as for B2
Consider B6, for which the binding result in experiment [2] was “binds”.

B7: 改変抗体G34W (antibody, human IgG1, V domains shown)
VH: QVQLVQSGAEVKKPGASVKVSCKASGYTFTDYEMHWVRQAPGQGLEWMGALDPKTGDTAYSQKFKGRVTLTADKSTSTAYMELSSLTSEDTAVYYCTRFYSYTYWGQGTLVTVSS
VL: DVVMTQSPLSLPVTPGEPASISCRSSQSLVHSNWNTYLHWYLQKPGQSPQLLIYKVSNRFSGVPDRFSGSGSGTDFTLKISRVEAEDVGVYYCSQNTHVPPTFGQGTKLEIK
notes: as for B2
Consider B7, for which the binding result in experiment [2] is “binds”.

B8: 改変抗体G34T (antibody, human IgG1, V domains shown)
VH: QVQLVQSGAEVKKPGASVKVSCKASGYTFTDYEMHWVRQAPGQGLEWMGALDPKTGDTAYSQKFKGRVTLTADKSTSTAYMELSSLTSEDTAVYYCTRFYSYTYWGQGTLVTVSS
VL: DVVMTQSPLSLPVTPGEPASISCRSSQSLVHSNTNTYLHWYLQKPGQSPQLLIYKVSNRFSGVPDRFSGSGSGTDFTLKISRVEAEDVGVYYCSQNTHVPPTFGQGTKLEIK
notes: as for B2
On to B8, for which, in experiment [2], the binding result was “binds”.

B9: 改変抗体G34Q (antibody, human IgG1, V domains shown)
VH: QVQLVQSGAEVKKPGASVKVSCKASGYTFTDYEMHWVRQAPGQGLEWMGALDPKTGDTAYSQKFKGRVTLTADKSTSTAYMELSSLTSEDTAVYYCTRFYSYTYWGQGTLVTVSS
VL: DVVMTQSPLSLPVTPGEPASISCRSSQSLVHSNQNTYLHWYLQKPGQSPQLLIYKVSNRFSGVPDRFSGSGSGTDFTLKISRVEAEDVGVYYCSQNTHVPPTFGQGTKLEIK
notes: as for B2
On to B9, for which the binding result in experiment [2] is on record as “binds”.

B10: ヒト化GC33 H鎖ver.c / L鎖ver.a (antibody, human IgG1, V domains shown)
VH: QVQLVESGAEVKKPGASVKVSCKASGYTFTDYEMHWVRQAPGQGLEWMGALDPKTGDTAYSQKFKGRVTLTADESTSTAYMELSSLRSEDTAVYYCTRFYSYTYWGQGTLVTVSS
VL: DVVMTQSPLSLPVTPGEPASISCRSSQSLVHSNGNTYLHWYLQKPGQSPQLLIYKVSNRFSGVPDRFSGSGSGTDFTLKISRVEAEDVGVYYCSQNTHVPPTFGQGTKLEIK
notes: Human IgG1 / κ constant regions; also called GC33 VH ver.c
As to B10, the binding result in experiment [1] is “binds”.

B11: 改変抗体G34E (antibody, human IgG1, V domains shown)
VH: QVQLVQSGAEVKKPGASVKVSCKASGYTFTDYEMHWVRQAPGQGLEWMGALDPKTGDTAYSQKFKGRVTLTADKSTSTAYMELSSLTSEDTAVYYCTRFYSYTYWGQGTLVTVSS
VL: DVVMTQSPLSLPVTPGEPASISCRSSQSLVHSNENTYLHWYLQKPGQSPQLLIYKVSNRFSGVPDRFSGSGSGTDFTLKISRVEAEDVGVYYCSQNTHVPPTFGQGTKLEIK
notes: as for B2
Regarding B11, the binding result in experiment [2] was “binds”.

B12: 改変抗体G34R (antibody, human IgG1, V domains shown)
VH: QVQLVQSGAEVKKPGASVKVSCKASGYTFTDYEMHWVRQAPGQGLEWMGALDPKTGDTAYSQKFKGRVTLTADKSTSTAYMELSSLTSEDTAVYYCTRFYSYTYWGQGTLVTVSS
VL: DVVMTQSPLSLPVTPGEPASISCRSSQSLVHSNRNTYLHWYLQKPGQSPQLLIYKVSNRFSGVPDRFSGSGSGTDFTLKISRVEAEDVGVYYCSQNTHVPPTFGQGTKLEIK
notes: as for B2
For B12, in experiment [2], the binding result is “binds”.

B13: 改変抗体G34K (antibody, human IgG1, V domains shown)
VH: QVQLVQSGAEVKKPGASVKVSCKASGYTFTDYEMHWVRQAPGQGLEWMGALDPKTGDTAYSQKFKGRVTLTADKSTSTAYMELSSLTSEDTAVYYCTRFYSYTYWGQGTLVTVSS
VL: DVVMTQSPLSLPVTPGEPASISCRSSQSLVHSNKNTYLHWYLQKPGQSPQLLIYKVSNRFSGVPDRFSGSGSGTDFTLKISRVEAEDVGVYYCSQNTHVPPTFGQGTKLEIK
notes: as for B2
On to B13, for which the binding result in experiment [2] was “binds”.

B14: 改変抗体G34Y (antibody, human IgG1, V domains shown)
VH: QVQLVQSGAEVKKPGASVKVSCKASGYTFTDYEMHWVRQAPGQGLEWMGALDPKTGDTAYSQKFKGRVTLTADKSTSTAYMELSSLTSEDTAVYYCTRFYSYTYWGQGTLVTVSS
VL: DVVMTQSPLSLPVTPGEPASISCRSSQSLVHSNYNTYLHWYLQKPGQSPQLLIYKVSNRFSGVPDRFSGSGSGTDFTLKISRVEAEDVGVYYCSQNTHVPPTFGQGTKLEIK
notes: as for B2
As to B14, the binding result in experiment [2] is recorded as “binds”.

B15: 改変抗体G34A (antibody, human IgG1, V domains shown)
VH: QVQLVQSGAEVKKPGASVKVSCKASGYTFTDYEMHWVRQAPGQGLEWMGALDPKTGDTAYSQKFKGRVTLTADKSTSTAYMELSSLTSEDTAVYYCTRFYSYTYWGQGTLVTVSS
VL: DVVMTQSPLSLPVTPGEPASISCRSSQSLVHSNANTYLHWYLQKPGQSPQLLIYKVSNRFSGVPDRFSGSGSGTDFTLKISRVEAEDVGVYYCSQNTHVPPTFGQGTKLEIK
notes: Humanised GC33 L chain ver.a variant; human IgG1/κ; COS7 culture supernatant
As to B15, the binding result in experiment [2] is “binds”.

B16: ヒト化GC33 H鎖ver.h / L鎖ver.a (antibody, human IgG1, V domains shown)
VH: QVQLVESGAEVKKPGASVKVSCKASGYTFTDYEMHWVRQAPGQGLEWMGALDPKTGDTAYSQKFKGRVTLTADKSTSTAYMELSSLTSEDTAVYYCTRFYSYTYWGQGTLVTVSS
VL: DVVMTQSPLSLPVTPGEPASISCRSSQSLVHSNGNTYLHWYLQKPGQSPQLLIYKVSNRFSGVPDRFSGSGSGTDFTLKISRVEAEDVGVYYCSQNTHVPPTFGQGTKLEIK
notes: Human IgG1 / κ constant regions; also called GC33 VH ver.h
In the case of B16, the binding result in experiment [1] was “binds”.

B17: 改変抗体G34S (antibody, human IgG1, V domains shown)
VH: QVQLVQSGAEVKKPGASVKVSCKASGYTFTDYEMHWVRQAPGQGLEWMGALDPKTGDTAYSQKFKGRVTLTADKSTSTAYMELSSLTSEDTAVYYCTRFYSYTYWGQGTLVTVSS
VL: DVVMTQSPLSLPVTPGEPASISCRSSQSLVHSNSNTYLHWYLQKPGQSPQLLIYKVSNRFSGVPDRFSGSGSGTDFTLKISRVEAEDVGVYYCSQNTHVPPTFGQGTKLEIK
notes: as for B2
Regarding B17, the binding result in experiment [2] is given as “binds”.

B18: 改変抗体G34L (antibody, human IgG1, V domains shown)
VH: QVQLVQSGAEVKKPGASVKVSCKASGYTFTDYEMHWVRQAPGQGLEWMGALDPKTGDTAYSQKFKGRVTLTADKSTSTAYMELSSLTSEDTAVYYCTRFYSYTYWGQGTLVTVSS
VL: DVVMTQSPLSLPVTPGEPASISCRSSQSLVHSNLNTYLHWYLQKPGQSPQLLIYKVSNRFSGVPDRFSGSGSGTDFTLKISRVEAEDVGVYYCSQNTHVPPTFGQGTKLEIK
notes: as for B2
On to B18, for which the binding result in experiment [2] is reported as “binds”.

B19: ヒト化GC33 H鎖ver.f / L鎖ver.a (antibody, human IgG1, V domains shown)
VH: QVQLVESGAEVKKPGASVKVSCKASGYTFTDYEMHWVRQAPGQGLEWMGALDPKTGDTAYSQKFKGRVTLTADKSTSTAYMELSSLRSEDTAVYYCTRFYSYTYWGQGTLVTVSS
VL: DVVMTQSPLSLPVTPGEPASISCRSSQSLVHSNGNTYLHWYLQKPGQSPQLLIYKVSNRFSGVPDRFSGSGSGTDFTLKISRVEAEDVGVYYCSQNTHVPPTFGQGTKLEIK
notes: Human IgG1 / κ constant regions; also called GC33 VH ver.f
As to B19, the binding result in experiment [1] was “binds”.

B20: ヒト化GC33 H鎖ver.i / L鎖ver.a (antibody, human IgG1, V domains shown)
VH: QVQLVQSGAEVKKPGASVKVSCKASGYTFTDYEMHWVRQAPGQGLEWMGALDPKTGDTAYSQKFKGRVTLTADESTSTAYMELSSLRSEDTAVYYCTRFYSYTYWGQGTLVTVSS
VL: DVVMTQSPLSLPVTPGEPASISCRSSQSLVHSNGNTYLHWYLQKPGQSPQLLIYKVSNRFSGVPDRFSGSGSGTDFTLKISRVEAEDVGVYYCSQNTHVPPTFGQGTKLEIK
notes: Human IgG1 / κ constant regions; also called GC33 VH ver.i
Regarding B20, the binding result in experiment [1] is recorded as “binds”.

B21: 改変抗体G34D (antibody, human IgG1, V domains shown)
VH: QVQLVQSGAEVKKPGASVKVSCKASGYTFTDYEMHWVRQAPGQGLEWMGALDPKTGDTAYSQKFKGRVTLTADKSTSTAYMELSSLTSEDTAVYYCTRFYSYTYWGQGTLVTVSS
VL: DVVMTQSPLSLPVTPGEPASISCRSSQSLVHSNDNTYLHWYLQKPGQSPQLLIYKVSNRFSGVPDRFSGSGSGTDFTLKISRVEAEDVGVYYCSQNTHVPPTFGQGTKLEIK
notes: as for B2
Turning to B21, the binding result in experiment [2] is reported as “binds”.
